Reference: patent US20210063414A1, “METHODS FOR PREVENTING AND/OR TREATING BONE LOSS CONDITIONS BY MODULATING IRISIN” (Dana-Farber Cancer Institute, Inc., priority 2018, published 2021)

Legend:
Assay in all cases: Crosslinking/co-immunoprecipitation/mass spectrometry (TMT quantitative proteomics) to identify irisin receptors
Assay type in all cases: binding
[1] = target: T1, MLO-Y4 cell surface proteins (Mus musculus, UniProt E9Q0C6); conditions: co-precipitated protein Gm14569 (E9Q0C6_MOUSE)
T1 construct: endogenous in cells; host or cells: MLO-Y4
Experimental: (§1) MLO-Y4 cells were seeded on 30×150 mm type-I collagen coated dishes as described in cell culture experiment. At 60% cell density, medium was switched to FreeStyle™ 293 Expression medium. After 4 hours incubation, the cells were chilled on ice for 10 minutes, followed by treatment of 10 nM his-tag irisin or his-tag adipsin for 20 minutes. The cells were then incubated with 1.5 mM DTSSP for 30 minutes on ice to do cross-linking, after washing with 15 ml cold PBS twice. The cross-linking was quenched by addition of a final concentration of 20 mM Tris-pH 7.5. The cells were then harvested and homogenized in 1 ml RIPA buffer containing proteaseinhibitor cocktailand phosphatase-inhibitor cocktail. Whole-cell lysates were homogenized by 10 times passages through a 22G needle fitted to a 3 ml syringe. Homogenized samples were rotated gently in cold room for 20 minutes followed by 15,000×g centrifugation for 10 minutes. After addition of a final concentration of 10 mM imidazole, supernatants were incubated with 100 μl Ni-NTA agarose for 1 hour. After centrifugation at 500×g for 1 minute, the supernatants were aspirated and 1 ml cold RIPA buffer containing 10 mM imidazole were added to the agarose. After 10 minutes rotation in cold room, the supernatants were aspirated and 1 ml cold RIPA buffer containing 30 mM imidazole were added to the agarose. After repeating the washing 3 times, 0.8 ml RIPA buffer containing 250 mM imidazole was added and the agarose was gently rotated in a cold room for 20 minutes. After centrifugation at 1000×g for 2 minutes, the supernatants were transferred to 1.5 ml tube and incubated with 100 μl 0.2% sodium deoxycholate and 100 μl 10% trichloroacetic acid in ice for 1 hour. After centrifugation at 12,000×g for 10 minutes at 4° C., the supernatants were removed and 1 ml cold acetone was added to the pellets followed by vortexing for 10 seconds. After one more washing with cold acetone, the pellets were dried at 37° C., and 39 μl PBS and 13 μl 4×NuPAGE LDS were added to the pellets with a final concentration of 5 mM DTT. Solubilized proteins were incubated at 65° C. for 20 minutes followed by incubation with a final concentration of 14 mM iodoacetamide for 45 minutes in the dark. 38 μl samples were loaded to 4-12% gradient SDS-PAGE for separation followed by Coomassie Blue staining. The gels were submitted to quantitative proteomics.
(§2) For in-gel digestions, gels were stained with Coomassie Blue and were excised into 8 equal segments for control and irisin lanes. Gel pieces were destained and dehydrated with 100% acetonitrile, vacuumed dried, and digested in 25 mM HEPES (pH 8.5) with 500 ng sequencing grade trypsin (Promega) and incubated for an overnight at 37° C. (Shevchenko et al. (1996) Anal. Chem. 68:850-858). Digests were treated with 1% formic acid and purified using C18 Stage-Tips as previously described (Rappsilber et al. (2007) Nat. Protoc. 2:1896-1906). Peptides were eluted with 70% acetonitrile and 1% formic acid, then dried using a speedvac. Isobaric labeling of digested peptides was accomplished using 6-plex tandem mass tag (TMT) reagents (Thermo Fisher Scientific, Rockford, Ill.). Reagents, 5.0 mg, were dissolved in 252 μl acetonitrile (ACN) and 5 μl of the solution was added to the digested peptides dissolved in 25 μl of 200 mM HEPES, pH 8.5. After 1 hour at room temperature, the reaction was quenched by adding 1 μl of 5% hydroxylamine. Labeled peptides were combined and acidified prior to C18 Stage-Tips desalting.
(§3) All LC-MS/MS experiments were performed on an Orbitrap Fusion™ Lumos mass spectrometer (Thermo Fisher Scientific, San Jose, Calif., USA) coupled with a Proxeon EASY-nLC™ 1200 LC pump (Thermo Fisher Scientific). Peptides were separated on a 100 μm inner diameter microcapillary column packed with 35 cm of Accucore™ C18 resin (1.8 μm, 100 Å, Thermo Fisher Scientific). […]

[2] = target: T2, MLO-Y4 cell surface proteins (Mus musculus, UniProt Q9D051); conditions: co-precipitated protein Pdhb (ODPB_MOUSE)
T2 construct: endogenous in cells; host or cells: MLO-Y4
T2 sequence (Q9D051 31-359): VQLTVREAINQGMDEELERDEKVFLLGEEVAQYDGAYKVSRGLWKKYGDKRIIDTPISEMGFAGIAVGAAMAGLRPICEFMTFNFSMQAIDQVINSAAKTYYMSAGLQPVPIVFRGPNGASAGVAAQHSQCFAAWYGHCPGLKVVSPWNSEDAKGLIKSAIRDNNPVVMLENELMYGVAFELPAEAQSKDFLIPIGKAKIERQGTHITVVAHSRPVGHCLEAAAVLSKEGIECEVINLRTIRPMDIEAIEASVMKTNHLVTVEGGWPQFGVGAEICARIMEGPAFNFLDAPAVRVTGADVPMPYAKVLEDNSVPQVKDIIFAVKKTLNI
Experimental: as §1, §2, §3

[3] = target: T3, MLO-Y4 cell surface proteins (Mus musculus, UniProt Q9WTP6); conditions: co-precipitated protein Ak2 (KAD2_MOUSE)
T3 construct: endogenous in cells; host or cells: MLO-Y4
Experimental: as §1, §2, §3

T1 sequence (E9Q0C6 whole entry): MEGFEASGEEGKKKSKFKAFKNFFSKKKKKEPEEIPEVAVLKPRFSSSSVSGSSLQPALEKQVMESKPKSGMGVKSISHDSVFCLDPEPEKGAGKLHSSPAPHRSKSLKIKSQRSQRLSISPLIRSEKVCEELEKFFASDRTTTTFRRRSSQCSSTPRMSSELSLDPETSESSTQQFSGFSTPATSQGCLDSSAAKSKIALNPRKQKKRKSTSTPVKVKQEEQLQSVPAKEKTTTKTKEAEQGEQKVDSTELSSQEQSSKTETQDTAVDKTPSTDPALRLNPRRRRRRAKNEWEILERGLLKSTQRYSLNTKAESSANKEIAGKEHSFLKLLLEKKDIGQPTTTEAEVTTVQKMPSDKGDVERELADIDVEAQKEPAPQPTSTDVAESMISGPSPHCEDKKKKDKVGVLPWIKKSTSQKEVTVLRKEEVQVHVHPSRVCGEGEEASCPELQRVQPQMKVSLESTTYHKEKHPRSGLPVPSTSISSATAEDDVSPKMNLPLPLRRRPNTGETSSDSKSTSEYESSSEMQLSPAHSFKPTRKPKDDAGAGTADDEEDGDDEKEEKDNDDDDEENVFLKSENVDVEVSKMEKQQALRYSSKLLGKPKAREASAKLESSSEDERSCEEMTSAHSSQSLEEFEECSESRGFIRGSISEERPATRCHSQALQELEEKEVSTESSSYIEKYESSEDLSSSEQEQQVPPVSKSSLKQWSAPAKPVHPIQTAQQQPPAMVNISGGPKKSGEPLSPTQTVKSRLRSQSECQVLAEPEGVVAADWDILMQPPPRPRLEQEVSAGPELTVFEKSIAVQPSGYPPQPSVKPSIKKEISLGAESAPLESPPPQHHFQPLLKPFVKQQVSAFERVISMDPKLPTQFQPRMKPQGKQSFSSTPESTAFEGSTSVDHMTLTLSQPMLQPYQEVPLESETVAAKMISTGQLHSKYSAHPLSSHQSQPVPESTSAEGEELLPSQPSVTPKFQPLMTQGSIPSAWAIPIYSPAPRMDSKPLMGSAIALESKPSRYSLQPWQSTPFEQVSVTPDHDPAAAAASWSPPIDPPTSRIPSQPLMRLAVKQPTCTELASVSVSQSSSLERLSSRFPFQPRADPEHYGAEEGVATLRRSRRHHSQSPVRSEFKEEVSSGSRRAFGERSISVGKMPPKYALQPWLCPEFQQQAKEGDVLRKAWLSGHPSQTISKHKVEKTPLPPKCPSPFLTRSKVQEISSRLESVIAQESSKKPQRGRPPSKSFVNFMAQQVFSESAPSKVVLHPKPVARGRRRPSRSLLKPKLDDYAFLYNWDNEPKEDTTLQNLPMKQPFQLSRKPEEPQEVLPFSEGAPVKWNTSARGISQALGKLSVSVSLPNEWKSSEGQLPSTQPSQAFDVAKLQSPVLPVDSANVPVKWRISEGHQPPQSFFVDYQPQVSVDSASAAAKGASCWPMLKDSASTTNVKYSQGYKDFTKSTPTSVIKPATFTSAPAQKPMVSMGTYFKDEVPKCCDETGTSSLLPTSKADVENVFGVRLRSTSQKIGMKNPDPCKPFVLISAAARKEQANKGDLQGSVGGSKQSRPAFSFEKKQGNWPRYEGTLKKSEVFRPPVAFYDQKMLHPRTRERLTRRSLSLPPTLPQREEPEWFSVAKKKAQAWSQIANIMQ

B1: irisin: secreted cleaved form of FNDC5; recombinant human/mouse irisin with C-terminal his tag produced in HEK293 cells (protein)
chain: DSPSAPVNVTVRHLKANSAVVSWDVLEDEVVIGFAISQQKKDVRMLRFIQEVNTTTRSCALWDLEEDTEYIVHVQAISIQGQSPASEPVLFKTPREAEKMASKNKDEVTMKE
modifications: left off: small tags and cut ends
notes: secreted cleaved form of FNDC5; recombinant human/mouse irisin with C-terminal his tag produced in HEK293 cells
[1]
  TMT signal-to-noise ratio: 8.647
  irisin/adipsin TMT signal-to-noise ratio: 0.039
[2]
  TMT signal-to-noise ratio: 123.1
  irisin/adipsin TMT signal-to-noise ratio: 0.337
[3]
  TMT signal-to-noise ratio: 61.9776
  irisin/adipsin TMT signal-to-noise ratio: 0.546
